This note sets out measurements from patent US10272135B2, “Apolipoprotein O and fragments thereof for inducing apoptosis in a cancerous cell” (INSERM (INSTITUT NATIONAL DE LA SANTÉ ET DE LA RECHERCHE …, priority 2014, dated 2019).

The subject of assay [1] is fatty acid transporter (CD36 and FATP4). Description: Real-time PCR of fatty acid transporter expression in cardiac myoblasts. Type of assay: cell-based. The settings on record: ApoO cells vs control (FIG. 6A-B). From the text: After ethical committee approval, all patients in this study gave written consent for sample collection and molecular analysis prior to inclusion. Patients were carefully selected by physicians from the Department of Cardiology, Toulouse University Hospital, prior to coronary by-pass surgery. Bioinformatics. Microarray expression data from human heart samples were downloaded from the GEO repository (GSE1145). This series consisted of 107 myocardial samples collected from patients undergoing cardiac transplantation whose failure arises from different etiologies (e.g. idiopathic dilated cardiomyopathy, ischemic cardiomyopathy, valvular cardiomyopathy, and hypertrophic cardiomyopathy) and from “normal” organ donors whose hearts cannot be used for transplants. Arrays were intensity normalized and hierarchical clustering (average group linkage, Pearson correlation, threshold r=0.8) was applied to identify groups of co-expressed genes. […] All ApoO sequences within the expression vectors were verified by DNA double strand sequencing using ABI PRISM®BigDye™ Terminator version 3.1 Ready reaction cycle sequencing kit (Life Technologies SAS, Villebon sur Yvette) and loaded on an ABI 3130XL DNA sequencing instrument (Life Technologies SAS, Villebon sur Yvette). […]

For a further assay, the system named is U87 cells. Description: Caspase-3 activity in U87 glioblastoma transfectants. It is filed as cell-based, human. The settings on record: U87 pTT-ApoO vs control pTT, 100 μM palmitate overnight (FIG. 13). On the procedure:
U87 were obtained from the European Collection of Cell Cultures (Salisbury, England). p y, g) U87 cells were cultured in Dulbecco's modified Eagle medium (Life Technologies SAS, Villebon sur Yvette) adjusted to contain 1.5 g/liter sodium bicarbonate and supplemented with antibiotic-antimycotic solution (Life Technologies SAS, Villebon sur Yvette) and 10% fetal bovine serum (FBS, AbCys s.a., Paris). Cells were plated on 10-cm diameter tissue culture dish and grown in a 5% CO2 incubator at 37° C. with saturating humidity with medium changes every 2 days. U87 glioblastomas were stably transfected by electroporation and pools of transfectants were selected as previously described (Smih et al 2002). Western Blot Analysis Cultured cells were resuspended in RIPA buffer (0.15 M sodium chloride, 1% NP-40, 0.5% sodium deoxycholate, 0.1% SDS, 50 mM Tris, pH 8) in the presence of a mix protease inhibitors. The lysate was sonicated 6 s and centrifuged at 6,500 g for 10 min. […] Protein immune-band densitometry was quantified with the ImageJ software. […] Caspase-3 activities were measured using the Caspase-3 Substrate IV Fluorogenic substate (VWR, Strasbourg) and a Victor™ X5 2030 multilabel reader (Perkin Elmer, Courtaboeuf). […]
The inventors measured and compared the Caspase-3 activity in • control U87 cells (pTT); and • U87 transfectants cells overexpressing ApoO (pTT-ApoO).

B1: ApoO: 198-amino acid apolipoprotein, SEQ ID NO: 1; tested by overexpression from expression vectors or transgene (protein, listed as Homo sapiens)
chain: MFKVIQRSVGPASLSLLTFKVYAAPKKDSPPKNSVKVDELSLYSVPEGQSKYVEEARSQLEESISQLRHYCEPYTTWCQETYSQTKPKMQSLVQWGLDSYDYLQNAPPGFFPRLGVIGFAGLIGLLLARGSKIKKLVYPPGFMGLAASLYYPQQAIVFAQVSGERLYDWGLRGYIVIEDLWKENFQKPGNVKNSPGTK
With B1, in assay [1], the “fatty acid transporter (CD36 and FATP4) expression” value is on record as “strongly increased”. The Caspase-3 activity entry with U87 cells is listed as “significant increase”.
